Reference: patent US20090297479A1

Assays:
[1] = target: PD-1 on human peripheral blood CD4+ T cells (human) (UniProt Q15116); assay: cell-based or functional assay
[2] = target: syndecan-4 (SD-4), human (human) (UniProt P31431); assay: cell-based or functional assay
Sequence of syndecan-4 (SD-4), human (human) (P31431 19-198): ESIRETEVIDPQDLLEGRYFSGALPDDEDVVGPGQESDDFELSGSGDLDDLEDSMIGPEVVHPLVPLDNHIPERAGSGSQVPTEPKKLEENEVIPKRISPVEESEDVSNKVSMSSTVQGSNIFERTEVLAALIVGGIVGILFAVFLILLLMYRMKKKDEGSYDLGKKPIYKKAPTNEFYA

Sequence of PD-1 on human peripheral blood CD4+ T cells (human) (Q15116 25-288): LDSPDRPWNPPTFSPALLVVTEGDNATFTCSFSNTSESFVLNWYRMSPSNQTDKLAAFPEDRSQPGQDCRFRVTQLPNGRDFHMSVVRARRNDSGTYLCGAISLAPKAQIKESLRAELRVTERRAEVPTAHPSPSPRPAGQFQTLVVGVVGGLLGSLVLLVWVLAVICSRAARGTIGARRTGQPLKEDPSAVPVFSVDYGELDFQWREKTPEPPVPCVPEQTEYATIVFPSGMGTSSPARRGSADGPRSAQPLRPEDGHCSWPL
Sequence of saporin-conjugated DC-HIL (human DC-HIL-Fc, biotinylated and conjugated with streptavidin-saporin) (Q14956 23-498): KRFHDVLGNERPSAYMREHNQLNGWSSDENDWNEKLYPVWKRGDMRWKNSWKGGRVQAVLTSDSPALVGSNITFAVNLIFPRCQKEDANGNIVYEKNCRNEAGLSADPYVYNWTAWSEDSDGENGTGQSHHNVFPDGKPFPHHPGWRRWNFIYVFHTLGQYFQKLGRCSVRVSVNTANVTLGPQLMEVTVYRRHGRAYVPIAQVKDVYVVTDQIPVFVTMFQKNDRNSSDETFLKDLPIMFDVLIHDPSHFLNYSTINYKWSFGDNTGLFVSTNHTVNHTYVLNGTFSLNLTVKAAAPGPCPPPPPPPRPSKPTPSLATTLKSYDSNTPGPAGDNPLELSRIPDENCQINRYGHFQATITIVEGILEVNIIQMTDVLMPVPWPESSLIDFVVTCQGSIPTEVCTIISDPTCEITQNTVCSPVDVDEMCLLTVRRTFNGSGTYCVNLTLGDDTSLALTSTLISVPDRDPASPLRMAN

## anti-PD-1 Ab (MIH4) (antibody)
[1]
  inhibition of proliferation induced by 0.3 µg/ml anti-CD3 Ab, Ab at 40 µg/ml: 50 % inhibition
  reduction of T cell proliferation at 0.1 µg/ml anti-CD3 Ab: 50%
  reduction of T cell proliferation at the highest dose (3 µg/ml) of anti-CD3 Ab: 10%

## human DC-HIL-Fc (extracellular domain of human DC-HIL fused to the Fc portion of mouse IgG2a) (from UniProt Q14956 23-498) (Fc fusion)
[2]
  IL-2 production by HUT-78 cells triggered by anti-CD3 Ab: < 70%

## saporin-conjugated DC-HIL (human DC-HIL-Fc, biotinylated and conjugated with streptavidin-saporin) (from UniProt Q14956 23-498)
[2]
  proliferation (3H-thymidine) of HUT-78 cells: 60 % reduction
